± gives the uncertainty stated by the source.
B1: Histone H1t, residues 44 to 112; numbered along this chain, P22492 (parent)
chain: VSKLITEALSVSQERVGMSLVALKKALAAAGYDVEKNNSRIKLSLKSLVNKGILVQTRGTGASGSFKLS

Variants of: B1
Test: abundance fitness (aPCA) (normalised: wild type 0, dead -1); higher = more abundant; growth selection in yeast, the domain comes from the species named
Settings: Homo sapiens

In order of falling abundance fitness:
1. VSKLIKEALSVSQERVGMSLVALKKALAAAGYDVEKNNSRIKLSLKSLVNKGILVQTRGTGASGSFKLS [T6K]  0.092 ± 0.066
2. PSKLITEALSVSQERVGMSLVALKKALAAAGYDVEKNNSRIKLSLKSLVNKGILVQTRGTGASGSFKLS [V1P]  0.071 ± 0.32
3. ISKLITEALSVSQERVGMSLVALKKALAAAGYDVEKNNSRIKLSLKSLVNKGILVQTRGTGASGSFKLS [V1I]  0.005 ± 0.072
4. VSELITEALSVSQERVGMSLVALKKALAAAGYDVEKNNSRIKLSLKSLVNKGILVQTRGTGASGSFKLS [K3E]  0.001 ± 0.05
5. VSKLIQEALSVSQERVGMSLVALKKALAAAGYDVEKNNSRIKLSLKSLVNKGILVQTRGTGASGSFKLS [T6Q]  -0.002 ± 0.15
6. VSKLINEALSVSQERVGMSLVALKKALAAAGYDVEKNNSRIKLSLKSLVNKGILVQTRGTGASGSFKLS [T6N]  -0.031 ± 0.097
7. VSKLIREALSVSQERVGMSLVALKKALAAAGYDVEKNNSRIKLSLKSLVNKGILVQTRGTGASGSFKLS [T6R]  -0.04 ± 0.074
8. VSKLIHEALSVSQERVGMSLVALKKALAAAGYDVEKNNSRIKLSLKSLVNKGILVQTRGTGASGSFKLS [T6H]  -0.05 ± 0.25
9. FSKLITEALSVSQERVGMSLVALKKALAAAGYDVEKNNSRIKLSLKSLVNKGILVQTRGTGASGSFKLS [V1F]  -0.054 ± 0.097
10. VSKLIIEALSVSQERVGMSLVALKKALAAAGYDVEKNNSRIKLSLKSLVNKGILVQTRGTGASGSFKLS [T6I]  -0.071 ± 0.098
11. VSKLIMEALSVSQERVGMSLVALKKALAAAGYDVEKNNSRIKLSLKSLVNKGILVQTRGTGASGSFKLS [T6M]  -0.098 ± 0.061
12. VSKLIEEALSVSQERVGMSLVALKKALAAAGYDVEKNNSRIKLSLKSLVNKGILVQTRGTGASGSFKLS [T6E]  -0.112 ± 0.12
13. VSKLIVEALSVSQERVGMSLVALKKALAAAGYDVEKNNSRIKLSLKSLVNKGILVQTRGTGASGSFKLS [T6V]  -0.153 ± 0.082
14. MSKLITEALSVSQERVGMSLVALKKALAAAGYDVEKNNSRIKLSLKSLVNKGILVQTRGTGASGSFKLS [V1M]  -0.16 ± 0.094
15. VSKLISEALSVSQERVGMSLVALKKALAAAGYDVEKNNSRIKLSLKSLVNKGILVQTRGTGASGSFKLS [T6S]  -0.168 ± 0.082
16. VSKLICEALSVSQERVGMSLVALKKALAAAGYDVEKNNSRIKLSLKSLVNKGILVQTRGTGASGSFKLS [T6C]  -0.181 ± 0.1
17. VSKLILEALSVSQERVGMSLVALKKALAAAGYDVEKNNSRIKLSLKSLVNKGILVQTRGTGASGSFKLS [T6L]  -0.222 ± 0.056
18. VSRLITEALSVSQERVGMSLVALKKALAAAGYDVEKNNSRIKLSLKSLVNKGILVQTRGTGASGSFKLS [K3R]  -0.251 ± 0.043
19. YSKLITEALSVSQERVGMSLVALKKALAAAGYDVEKNNSRIKLSLKSLVNKGILVQTRGTGASGSFKLS [V1Y]  -0.269 ± 0.091
20. VSSLITEALSVSQERVGMSLVALKKALAAAGYDVEKNNSRIKLSLKSLVNKGILVQTRGTGASGSFKLS [K3S]  -0.297 ± 0.092
21. VSKLIYEALSVSQERVGMSLVALKKALAAAGYDVEKNNSRIKLSLKSLVNKGILVQTRGTGASGSFKLS [T6Y]  -0.298 ± 0.19
22. VSKLIDEALSVSQERVGMSLVALKKALAAAGYDVEKNNSRIKLSLKSLVNKGILVQTRGTGASGSFKLS [T6D]  -0.299 ± 0.21
23. TSKLITEALSVSQERVGMSLVALKKALAAAGYDVEKNNSRIKLSLKSLVNKGILVQTRGTGASGSFKLS [V1T]  -0.337 ± 0.076
24. KSKLITEALSVSQERVGMSLVALKKALAAAGYDVEKNNSRIKLSLKSLVNKGILVQTRGTGASGSFKLS [V1K]  -0.403 ± 0.12
25. VSGLITEALSVSQERVGMSLVALKKALAAAGYDVEKNNSRIKLSLKSLVNKGILVQTRGTGASGSFKLS [K3G]  -0.45 ± 0.035
26. VSLLITEALSVSQERVGMSLVALKKALAAAGYDVEKNNSRIKLSLKSLVNKGILVQTRGTGASGSFKLS [K3L]  -0.474 ± 0.043
27. SSKLITEALSVSQERVGMSLVALKKALAAAGYDVEKNNSRIKLSLKSLVNKGILVQTRGTGASGSFKLS [V1S]  -0.512 ± 0.11
28. LSKLITEALSVSQERVGMSLVALKKALAAAGYDVEKNNSRIKLSLKSLVNKGILVQTRGTGASGSFKLS [V1L]  -0.536 ± 0.17
29. VSKLIAEALSVSQERVGMSLVALKKALAAAGYDVEKNNSRIKLSLKSLVNKGILVQTRGTGASGSFKLS [T6A]  -0.536 ± 0.14
30. NSKLITEALSVSQERVGMSLVALKKALAAAGYDVEKNNSRIKLSLKSLVNKGILVQTRGTGASGSFKLS [V1N]  -0.557 ± 0.1
31. VSKLIFEALSVSQERVGMSLVALKKALAAAGYDVEKNNSRIKLSLKSLVNKGILVQTRGTGASGSFKLS [T6F]  -0.578 ± 0.14
32. VSMLITEALSVSQERVGMSLVALKKALAAAGYDVEKNNSRIKLSLKSLVNKGILVQTRGTGASGSFKLS [K3M]  -0.583 ± 0.054
33. VSFLITEALSVSQERVGMSLVALKKALAAAGYDVEKNNSRIKLSLKSLVNKGILVQTRGTGASGSFKLS [K3F]  -0.595 ± 0.091
34. VSKLIGEALSVSQERVGMSLVALKKALAAAGYDVEKNNSRIKLSLKSLVNKGILVQTRGTGASGSFKLS [T6G]  -0.629 ± 0.15
35. VSWLITEALSVSQERVGMSLVALKKALAAAGYDVEKNNSRIKLSLKSLVNKGILVQTRGTGASGSFKLS [K3W]  -0.691 ± 0.042
36. VSYLITEALSVSQERVGMSLVALKKALAAAGYDVEKNNSRIKLSLKSLVNKGILVQTRGTGASGSFKLS [K3Y]  -0.717 ± 0.17
37. VSKLIWEALSVSQERVGMSLVALKKALAAAGYDVEKNNSRIKLSLKSLVNKGILVQTRGTGASGSFKLS [T6W]  -0.737 ± 0.15
38. HSKLITEALSVSQERVGMSLVALKKALAAAGYDVEKNNSRIKLSLKSLVNKGILVQTRGTGASGSFKLS [V1H]  -0.877 ± 0.43
39. VSKLIPEALSVSQERVGMSLVALKKALAAAGYDVEKNNSRIKLSLKSLVNKGILVQTRGTGASGSFKLS [T6P]  -1.24 ± 0.14

Source: the Human Domainome abundance scans (Beltran et al. 2025)
